Where two headings read alike, the source gives them in different places. Where only a bound is given, the exact number is not on record here.

Assay [1] deals with recombinant BDBV glycoprotein (BDBV (Bundibugyo ebolavirus)). Kind of assay: maximal binding from ELISA dose-response fit.
Assay [2] has as its target T1, recombinant RESTV glycoprotein (RESTV (Reston ebolavirus), UniProt Q66799 34-651).
T1 sequence: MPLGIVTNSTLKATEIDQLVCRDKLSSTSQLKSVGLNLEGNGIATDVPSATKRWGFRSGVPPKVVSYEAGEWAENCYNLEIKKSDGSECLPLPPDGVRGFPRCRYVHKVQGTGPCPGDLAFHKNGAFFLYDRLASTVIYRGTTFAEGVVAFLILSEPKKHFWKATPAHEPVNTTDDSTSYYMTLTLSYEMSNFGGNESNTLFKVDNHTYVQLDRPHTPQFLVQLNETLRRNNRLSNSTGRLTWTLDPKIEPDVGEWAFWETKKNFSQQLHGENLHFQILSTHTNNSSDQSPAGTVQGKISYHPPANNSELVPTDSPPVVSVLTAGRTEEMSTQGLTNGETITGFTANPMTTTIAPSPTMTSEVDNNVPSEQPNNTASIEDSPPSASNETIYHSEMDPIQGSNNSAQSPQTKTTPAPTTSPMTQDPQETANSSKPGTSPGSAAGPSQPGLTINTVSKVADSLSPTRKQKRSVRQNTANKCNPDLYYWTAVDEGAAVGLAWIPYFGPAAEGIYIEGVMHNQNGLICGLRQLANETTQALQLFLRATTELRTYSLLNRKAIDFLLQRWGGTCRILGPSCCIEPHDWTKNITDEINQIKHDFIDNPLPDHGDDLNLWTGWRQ
In words: ELISA dose-response fit, reference scFv22-1. A general note: In an ELISA, binding on a coated surface is turned into a signal by an enzyme label.

In assay [3] the target is T2, recombinant EBOV glycoprotein (EBOV (Zaire ebolavirus), UniProt Q05320 33-650).
T2 sequence: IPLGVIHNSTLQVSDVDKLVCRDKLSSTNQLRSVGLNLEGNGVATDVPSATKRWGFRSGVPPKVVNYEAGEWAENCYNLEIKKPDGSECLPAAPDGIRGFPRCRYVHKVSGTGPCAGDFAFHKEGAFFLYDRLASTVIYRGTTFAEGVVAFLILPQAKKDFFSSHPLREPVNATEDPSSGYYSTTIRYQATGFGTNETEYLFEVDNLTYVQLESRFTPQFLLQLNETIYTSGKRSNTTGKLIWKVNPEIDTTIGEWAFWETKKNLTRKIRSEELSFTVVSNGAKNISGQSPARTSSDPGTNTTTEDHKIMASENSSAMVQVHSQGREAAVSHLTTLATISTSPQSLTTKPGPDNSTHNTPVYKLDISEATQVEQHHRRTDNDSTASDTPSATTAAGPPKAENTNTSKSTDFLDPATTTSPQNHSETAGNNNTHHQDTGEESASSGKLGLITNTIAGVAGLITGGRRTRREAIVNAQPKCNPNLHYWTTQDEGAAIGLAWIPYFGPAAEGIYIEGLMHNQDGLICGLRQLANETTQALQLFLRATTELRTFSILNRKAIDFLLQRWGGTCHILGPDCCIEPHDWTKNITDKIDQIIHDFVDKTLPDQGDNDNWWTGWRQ

Assay [4] concerns the target recombinant BDBV glycoprotein (BDBV (Bundibugyo ebolavirus)). In words: ELISA dose response, GP coated.
The target is the same in assay [5]. Kind of assay: ELISA dose response, GP coated. The source holds these as a separate data set.
The target is the same in assay [6]. Kind of assay: ELISA dose-response fit, reference scFv22-1.

B1: EbovGPscFv4-2 (scFv)
scFv: MAWSHPQFEKTGSGGAELVKSGASVKLSCTASGFNIKDDYMHWVKQRPEQGLEWIGWIDPENGDTEYASKFQGKATITADTSSNTAYLQLSSLTSEDTAVYYCTTYYYGSAWFAYWGQGTLVTVSAGGGGSGGGGSGGGGSGGGGSASLSVSVGETVTITCRASGNIHNYLAWYQQKQGKSPQLLVYNAKTLADGVPSRFSGSGSGTQYSLKINNLQPEDFGSYYCQHFWSTPYTFGGGTKLEIKRADAAPTVSIFPPSSEQLTSGGASVVCFLNNFTHCQELQQDECS
Usually EC50 stands for the concentration that produces a half-maximal response. On to B1, for which the Bmax signal (relative absorbance units) in assay [1] was 220000. Besides, the “fold affinity against scFv22-1” value in assay [2] was about 2 fold; in assay [6] it was 2 fold. Besides, the 50% effective concentration (EC50) in assay [3] is 4 µg/mL; in assay [4] it was 8.19 µg/mL; in assay [5], under 9 µg/mL.

These data come from US20230212268A1 (UNM RAINFOREST INNOVATIONS, published 2023).
